These results are taken from PMC7472333.

The series deals with WT capsid protein (RRV CP) (Ross River virus, UniProt P08491 1-270). Nature of the series: EMSA (native agarose gel shift, co-migration of protein and DNA); 3 uM CP, 3 uM DNA, 150 mM NaCl; CLP assembly. To be noted: protein: recombinant; tags: 6xHis (N-terminal). Background: A gel shift assay detects complexes by their altered migration in electrophoresis.
Chain of WT capsid protein (RRV CP) (P08491 1-270): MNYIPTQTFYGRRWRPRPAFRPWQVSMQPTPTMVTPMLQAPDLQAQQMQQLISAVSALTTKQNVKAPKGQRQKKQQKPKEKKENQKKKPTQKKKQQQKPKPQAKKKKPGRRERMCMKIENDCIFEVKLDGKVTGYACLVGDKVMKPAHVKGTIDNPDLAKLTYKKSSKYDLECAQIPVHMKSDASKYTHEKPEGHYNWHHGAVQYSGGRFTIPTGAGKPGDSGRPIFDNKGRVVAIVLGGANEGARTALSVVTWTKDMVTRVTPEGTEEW

Regarding GTTGACGTCACAGATGAGATATAAAGCATAAGGGACATGTTCAAACGG (ssDNA) [48-mer linear ssDNA oligomer (DNA cargo)], the binding result is given as “binds”.
